Measured values published in paper doi:10.1101/2024.05.02.592161.

Target: Mx_pmut, pore-engineered Myxococcus xanthus encapsulin shell protein (Myxococcus xanthus) (UniProt Q1D6H4)
Experiment: cryo-EM structure; purified Mx_pmut co-expressed with SNAP-tag-TP cargo (T=3/T=4 sample), 4.1 mg/mL, 150 mM NaCl, 25 mM Tris pH 8.0; icosahedral symmetry imposed

“SNAP-tag carrying an Mx-targeting peptide (TP) at its C-terminus” gave a copies of cargo in a T=3 shell of 180 copies and a copies of cargo in a T=4 shell of 240 copies.
